# Assay results reported in publication PMC11661312, “The identification of XPR1 as a voltage- and phosphate-activated phosphate-permeable ion channel” (Research Square, 2024).
# B1: human Xenotropic and Polytropic retrovirus Receptor 1 (hXPR1) (natural protein, UniProt Q9UBH6 1-696, looked up)
# chain: MKFAEHLSAHITPEWRKQYIQYEAFKDMLYSAQDQAPSVEVTDEDTVKRYFAKFEEKFFQTCEKELAKINTFYSEKLAEAQRRFATLQNELQSSLDAQKESTGVTTLRQRRKPVFHLSHEERVQHRNIKDLKLAFSEFYLSLILLQNYQNLNFTGFRKILKKHDKILETSRGADWRVAHVEVAPFYTCKKINQLISETEAVVTNELEDGDRQKAMKRLRVPPLGAAQPAPAWTTFRVGLFCGIFIVLNITLVLAAVFKLETDRSIWPLIRIYRGGFLLIEFLFLLGINTYGWRQAGVNHVLIFELNPRSNLSHQHLFEIAGFLGILWCLSLLACFFAPISVIPTYVYPLALYGFMVFFLINPTKTFYYKSRFWLLKLLFRVFTAPFHKVGFADFWLADQLNSLSVILMDLEYMICFYSLELKWDESKGLLPNNSEESGICHKYTYGVRAIVQCIPAWLRFIQCLRRYRDTKRAFPHLVNAGKYSTTFFMVTFAALYSTHKERGHSDTMVFFYLWIVFYIISSCYTLIWDLKMDWGLFDKNAGENTFLREEIVYPQKAYYYCAIIEDVILRFAWTIQISITSTTLLPHSGDIIATVFAPLEVFRRFVWNFFRLENEHLNNCGEFRAVRDISVAPLNADDQTLLEQMMDQDDGVRNRQKNRSWKYNQSISLRRPRLASQSKARDTKVLIEDTDDEANT
# notes: Xenotropic and Polytropic retrovirus Receptor 1 (XPR1), human, Uniprot Q9UBH6, full length; cDNA synthesized with a C-terminal Strep-tag II; Homodimer in the detergent mixture (GDN/LMNG/CHS) by cryo-EM; also called SLC53a1; apo-hXPR1
# Target: the molecule itself
# Assay: cryo-EM structure; purified hXPR1 at 10 to 20 mg/mL in GDN/LMNG/CHS detergent mixture; apo: 20 mM Tris pH 7.4, 150 mM NaCl (C1 symmetry); also with 25 mM sodium phosphate, 150 mM NaCl, 1 mM phytic acid (InsP6) pH 7.4 (C2 symmetry imposed)
protein,measurement,value
B1,stoichiometry N,2
